Reference: paper PMC6073210, “Adducin‐1 is essential for spindle pole integrity through its interaction with TPX2” (EMBO Reports, 2018)
Blank lines part the entries; values can stand above or below the molecule they belong to.

Key:
TPX2 = TPX2 (UniProt Q9ULW0); assay: anti-FLAG resin co-IP, TPX2 blot; conditions: reference: FLAG-ADD1 wild type, M phase; sites S726
[1] = target: T1, FLAG-ADD1 S726A mutant, expressed in HeLa cells (UniProt P35611 1-737, S726A); assay: co-IP; HeLa cells expressing FLAG-ADD1 WT or S726A, synchronized at the M phase (nocodazole); lysates in TBS buffer (1% Triton X-100, 50 mM Tris-HCl pH 7.4, 150 mM NaCl) incubated with anti-FLAG M2 affinity resins for 16 h, eluted with FLAG peptide, blotted with anti-FLAG and anti-TPX2; conditions: partners not purified
T1 construct: adducin-1 (ADD1) with S726A; source: HeLa cells expressing FLAG-ADD1 S726A (lentiviral vector pLAS3w.Pneo), in whole-cell lysate
T1 sequence (looked up): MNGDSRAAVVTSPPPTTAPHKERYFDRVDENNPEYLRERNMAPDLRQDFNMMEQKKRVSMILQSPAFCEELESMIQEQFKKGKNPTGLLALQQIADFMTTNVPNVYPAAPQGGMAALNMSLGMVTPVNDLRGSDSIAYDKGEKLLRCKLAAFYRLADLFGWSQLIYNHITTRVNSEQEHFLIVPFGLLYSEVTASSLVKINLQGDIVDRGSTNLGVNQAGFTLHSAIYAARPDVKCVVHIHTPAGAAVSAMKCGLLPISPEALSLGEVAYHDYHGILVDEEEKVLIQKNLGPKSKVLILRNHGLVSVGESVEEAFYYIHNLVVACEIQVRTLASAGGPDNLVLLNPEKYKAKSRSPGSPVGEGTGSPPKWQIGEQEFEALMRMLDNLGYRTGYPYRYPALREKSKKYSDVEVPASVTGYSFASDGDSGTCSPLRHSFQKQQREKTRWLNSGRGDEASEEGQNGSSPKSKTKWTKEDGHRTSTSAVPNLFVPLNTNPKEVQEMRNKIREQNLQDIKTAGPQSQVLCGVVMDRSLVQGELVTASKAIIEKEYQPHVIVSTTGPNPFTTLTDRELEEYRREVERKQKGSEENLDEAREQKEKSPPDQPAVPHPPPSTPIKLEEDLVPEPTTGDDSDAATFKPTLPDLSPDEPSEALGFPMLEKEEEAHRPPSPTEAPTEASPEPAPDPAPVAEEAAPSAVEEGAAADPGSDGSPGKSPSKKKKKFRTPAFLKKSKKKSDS

[2] = target: T2, FLAG-ADD1 WT (adducin-1), transiently expressed in HEK293 cells (UniProt P35611 1-737); assay: pull-down; GST-TPX2 fusion proteins immobilised on glutathione agarose beads, incubated with 25 μg of lysates from HEK293 cells expressing FLAG-tagged ADD1 forms at 4°C for 60 min; washed with TBS buffer; blot with anti-FLAG; conditions: one partner purified
T2 construct: adducin-1 (ADD1); pCMV-3Tag-3A probably adds a C-terminal 3x FLAG; also called FLAG-tagged ADD1; 293/FLAG-ADD1; source: HEK293, transiently transfected, in lysate
T2 sequence (looked up): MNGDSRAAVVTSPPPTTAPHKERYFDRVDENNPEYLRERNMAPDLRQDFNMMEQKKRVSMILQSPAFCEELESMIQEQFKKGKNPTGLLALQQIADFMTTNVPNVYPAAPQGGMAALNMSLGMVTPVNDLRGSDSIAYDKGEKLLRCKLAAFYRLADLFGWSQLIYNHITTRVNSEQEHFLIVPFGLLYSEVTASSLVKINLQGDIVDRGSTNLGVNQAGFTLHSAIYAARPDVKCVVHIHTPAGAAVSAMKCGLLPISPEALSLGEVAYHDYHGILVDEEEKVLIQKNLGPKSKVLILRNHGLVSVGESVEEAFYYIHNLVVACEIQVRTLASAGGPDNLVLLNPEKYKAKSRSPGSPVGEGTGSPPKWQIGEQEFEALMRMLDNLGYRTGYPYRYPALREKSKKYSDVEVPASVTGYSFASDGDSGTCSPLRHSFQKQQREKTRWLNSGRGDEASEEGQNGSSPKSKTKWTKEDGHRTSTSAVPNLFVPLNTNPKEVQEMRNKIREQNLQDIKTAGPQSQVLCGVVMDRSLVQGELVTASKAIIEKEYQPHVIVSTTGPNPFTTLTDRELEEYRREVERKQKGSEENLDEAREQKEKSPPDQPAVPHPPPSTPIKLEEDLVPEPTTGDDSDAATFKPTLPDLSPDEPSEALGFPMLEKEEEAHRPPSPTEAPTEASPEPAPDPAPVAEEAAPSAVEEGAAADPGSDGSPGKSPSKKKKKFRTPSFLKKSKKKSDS

- TPX2 co-IP binding relative to wild type (TPX2): weaker
Molecule: adducin-1 (ADD1) (from UniProt P35611) FLAG-ADD1 S726A, M phase

- percent decrease of the interaction relative to FLAG-ADD1 WT [1]: ~50%
B1: TPX2, endogenous in HeLa cells (natural protein, human (endogenous in HeLa), UniProt Q9ULW0 1-747, looked up)
chain: MSQVKSSYSYDAPSDFINFSSLDDEGDTQNIDSWFEEKANLENKLLGKNGTGGLFQGKTPLRKANLQQAIVTPLKPVDNTYYKEAEKENLVEQSIPSNACSSLEVEAAISRKTPAQPQRRSLRLSAQKDLEQKEKHHVKMKAKRCATPVIIDEILPSKKMKVSNNKKKPEEEGSAHQDTAEKNASSPEKAKGRHTVPCMPPAKQKFLKSTEEQELEKSMKMQQEVVEMRKKNEEFKKLALAGIGQPVKKSVSQVTKSVDFHFRTDERIKQHPKNQEEYKEVNFTSELRKHPSSPARVTKGCTIVKPFNLSQGKKRTFDETVSTYVPLAQQVEDFHKRTPNRYHLRSKKDDINLLPSKSSVTKICRDPQTPVLQTKHRARAVTCKSTAELEAEELEKLQQYKFKARELDPRILEGGPILPKKPPVKPPTEPIGFDLEIEKRIQERESKKKTEDEHFEFHSRPCPTKILEDVVGVPEKKVLPITVPKSPAFALKNRIRMPTKEDEEEDEPVVIKAQPVPHYGVPFKPQIPEARTVEICPFSFDSRDKERQLQKEKKIKELQKGEVPKFKALPLPHFDTINLPEKKVKNVTQIEPFCLETDRRGALKAQTWKHQLEEELRQQKEAACFKARPNTVISQEPFVPKKEKKSVAEGLSGSLVQEPFQLATEKRAKERQELEKRMAEVEAQKAQQLEEARLQEEEQKKEELARLRRELVHKANPIRKYQGLEIKSSDQPLTVPVSPKFSTRFHC
notes: TPX2, endogenous protein of HeLa cells detected with anti-TPX2; source: endogenous, HeLa whole-cell lysate

- binding result [2]: binds
B2: GST-TPX2 aa 120–370 fusion protein (domain or fragment, human, UniProt Q9ULW0 120-370, looked up)
chain: RSLRLSAQKDLEQKEKHHVKMKAKRCATPVIIDEILPSKKMKVSNNKKKPEEEGSAHQDTAEKNASSPEKAKGRHTVPCMPPAKQKFLKSTEEQELEKSMKMQQEVVEMRKKNEEFKKLALAGIGQPVKKSVSQVTKSVDFHFRTDERIKQHPKNQEEYKEVNFTSELRKHPSSPARVTKGCTIVKPFNLSQGKKRTFDETVSTYVPLAQQVEDFHKRTPNRYHLRSKKDDINLLPSKSSVTKICRDPQTP
notes: TPX2, Homo sapiens, aa 120–370 of the full-length cDNA (aa 1–747), subcloned into pGEX-2T; pGEX-2T probably places GST at the N-terminus; also called TPX2 aa 120–370 fragment; GST-tagged TPX2 aa 120–370; source: E. coli BL21, purified on glutathione agarose beads
